Source: patent publication US20190218304A1, “POTENTIATING THE EFFECT OF ATP RELEASE” (INNATE PHARMA, priority 2017, published 2019)
“Also recorded” adds a separate entry of the source.

What was measured:
[1] = molecular target: T1, soluble recombinant human CD39 protein (Homo sapiens, UniProt P49961); assay: Inhibition of the enzymatic activity of soluble CD39 (Cell Titer Glo); assay type: biochemical
T1 construct: made in house; host or cells: CHO cells
T1 sequence (P49961 with tags, fused parts or gaps): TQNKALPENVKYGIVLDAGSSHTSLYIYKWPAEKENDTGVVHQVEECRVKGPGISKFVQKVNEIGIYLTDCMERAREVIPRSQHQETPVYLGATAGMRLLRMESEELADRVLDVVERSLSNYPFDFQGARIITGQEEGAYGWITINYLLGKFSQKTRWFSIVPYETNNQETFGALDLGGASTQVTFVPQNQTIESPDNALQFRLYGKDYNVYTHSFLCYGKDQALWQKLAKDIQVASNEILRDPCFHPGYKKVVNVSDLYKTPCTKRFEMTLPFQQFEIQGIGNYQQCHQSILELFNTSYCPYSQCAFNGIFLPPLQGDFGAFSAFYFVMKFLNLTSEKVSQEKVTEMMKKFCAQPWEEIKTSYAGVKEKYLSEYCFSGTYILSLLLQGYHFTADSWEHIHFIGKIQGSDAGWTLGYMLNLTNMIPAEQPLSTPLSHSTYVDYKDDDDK
Procedure: The inhibition by antibodies of the enzymatic activity of soluble CD39 protein produced was evaluated using Cell Titer Glo™ (Promega, reference G7571) that allows assessment of ATP hydrolysis through use of a reagent that generates a luminescent signal proportional to the amount of ATP present. In this way, inhibition of the soluble-CD39-meidatd ATP hydrolysis can be assessed. Briefly, dose ranges of anti-CD39 antibodies from 100 μg/ml to 6×10^−3 μg/ml were incubated with 400 ng/ml of soluble recombinant human CD39 protein having the amino acid sequence described in the Methods section (SEQ ID NO: 39), for 1 h at 37° C. 20 μM ATP was added to the plates for 30 additional minutes at 37° C. before addition of CTG (Cell Titer Glo) reagent. Emitted light was quantified using an Enspire™ luminometer after a short incubation period of 5 min in the dark. Anti-CD39 antibody efficacy was determined by comparing emitted light in presence of antibody with ATP alone (maximal light emission) and ATP together with soluble CD39 protein (minimal light emission).

[2] = molecular target: T2, CHO cells expressing human CD39 (Homo sapiens, UniProt P49961); assay: Antibody titration by flow cytometry on CHO-huCD39; assay type: binding
T2 construct: expressed in transfected cells; host or cells: CHO cells
T2 sequence (P49961 1-510): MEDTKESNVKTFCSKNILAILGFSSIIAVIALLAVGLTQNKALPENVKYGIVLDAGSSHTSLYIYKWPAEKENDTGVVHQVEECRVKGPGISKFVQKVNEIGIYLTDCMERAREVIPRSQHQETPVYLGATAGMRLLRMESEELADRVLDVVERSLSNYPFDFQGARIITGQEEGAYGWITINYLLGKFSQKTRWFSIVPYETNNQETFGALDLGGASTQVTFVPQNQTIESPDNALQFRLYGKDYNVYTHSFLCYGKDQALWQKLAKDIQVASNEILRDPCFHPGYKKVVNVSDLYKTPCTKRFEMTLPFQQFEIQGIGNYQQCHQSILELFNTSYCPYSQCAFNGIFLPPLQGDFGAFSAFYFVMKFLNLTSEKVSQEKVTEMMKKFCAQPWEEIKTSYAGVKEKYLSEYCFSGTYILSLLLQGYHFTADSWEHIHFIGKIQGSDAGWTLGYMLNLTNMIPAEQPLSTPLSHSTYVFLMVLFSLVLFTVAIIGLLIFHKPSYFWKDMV
Procedure: Cells were incubated with various concentration of unlabeled anti-CD39 antibody from 30 μg/ml to 5×10^−4 μg/ml, for 30 minutes at 4° C. After washes, cells were incubated with Goat anti-mouse H+L labeled secondary antibody for 30 min at 4° C.

[3] = molecular target: T3, Human CD39-L4, also known as NTPDase5 or ENTPD5 (Homo sapiens, UniProt O75356); assay: ELISA titration on CD39-L4; assay type: binding; conditions: coated recombinant protein, OD=450
T3 sequence (O75356 25-428): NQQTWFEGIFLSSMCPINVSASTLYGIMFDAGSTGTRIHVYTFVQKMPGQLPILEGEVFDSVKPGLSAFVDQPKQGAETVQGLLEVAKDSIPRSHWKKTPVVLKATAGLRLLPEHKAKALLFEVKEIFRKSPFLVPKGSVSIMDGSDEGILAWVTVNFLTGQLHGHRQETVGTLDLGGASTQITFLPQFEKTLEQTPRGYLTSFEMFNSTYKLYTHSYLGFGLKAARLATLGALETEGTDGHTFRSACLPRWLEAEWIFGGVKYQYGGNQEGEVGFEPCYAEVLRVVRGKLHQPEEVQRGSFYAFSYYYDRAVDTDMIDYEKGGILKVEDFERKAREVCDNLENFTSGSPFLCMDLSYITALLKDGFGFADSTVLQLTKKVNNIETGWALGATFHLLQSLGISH
Procedure: Wells were washed in TBS Tween 20, and further saturated 2H at RT in TBS Blocking buffer. Dose range concentration of primary antibody was incubated in TBS blocking buffer for 2 h at RT. Wells were washed in TBS Tween 20. […] Optical density was measured on Enspire™ at OD=450.

[4] = molecular target: T4, cell-membrane bound CD39 (Homo sapiens, UniProt P49961); assay: Inhibition of the enzymatic activity of cellular CD39 (cells not specified); assay type: cell-based
T4 sequence (P49961 1-510): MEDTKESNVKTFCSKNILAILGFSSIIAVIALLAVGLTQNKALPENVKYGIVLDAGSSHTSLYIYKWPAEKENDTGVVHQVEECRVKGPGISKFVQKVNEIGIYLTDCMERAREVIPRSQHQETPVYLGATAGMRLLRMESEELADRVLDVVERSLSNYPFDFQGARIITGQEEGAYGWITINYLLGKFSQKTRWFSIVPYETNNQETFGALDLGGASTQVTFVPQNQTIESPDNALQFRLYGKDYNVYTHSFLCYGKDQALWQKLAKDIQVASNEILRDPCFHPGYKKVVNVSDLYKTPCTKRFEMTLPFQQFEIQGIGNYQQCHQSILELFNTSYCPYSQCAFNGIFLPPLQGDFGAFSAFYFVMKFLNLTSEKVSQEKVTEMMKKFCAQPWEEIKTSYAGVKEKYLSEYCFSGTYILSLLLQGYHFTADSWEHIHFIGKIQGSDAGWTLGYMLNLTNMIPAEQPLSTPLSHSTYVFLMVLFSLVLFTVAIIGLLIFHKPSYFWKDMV
Procedure: The inhibition of the CD39 enzymatic activity in CD39-expressing cells by antibodies was evaluated using Cell Titer Glo™ (Promega, reference G7571) that allows assessment of ATP hydrolysis through use of a reagent that generates a luminescent signal proportional to the amount of ATP present. The assay was thus designed to permit assessment of the inhibition of ATP hydrolyzed by CD39 in the cell culture supernatant. Briefly, 5×10^4 Ramos human lymphoma cells, 5×10^3 human CD39-, cynomolgus CD39- and mouse CD39-expressing CHO cells, were incubated 1 hour at 37° C. with anti-CD39 antibodies from 30 μg/ml to 5×10^−4 μg/ml. Cells were then incubated with 20 μM ATP for 1 additional hour at 37° C. Plates were centrifuged for 2 min at 400 g and 50 μl cell supernatant are transferred in a luminescence microplate (white wells). 50 μl CellTiter-Glo® Reagent (CTG) was added to the supernatant and emitted light was quantified after a 5 min incubation in the dark using a Enspire™ luminometer. Anti-CD39 antibody efficacy was determined by comparing emitted light in presence of antibody with ATP alone (maximal light emission) and ATP together with cells (minimal light emission). […]

B1: I-394: anti-CD39 antibody, VH SEQ ID NO: 3, VL SEQ ID NO: 4; heavy and light chains SEQ ID NOS: 37 and 38 (antibody)
heavy: EVQLQQSGPELVKPGASVKMSCKASGYTFTDYNMHWVKQSHGRTLEWIGYIVPLNGGSTFNQKFKGRATLTVNTSSRTAYMELRSLTSEDSAAYYCARGGTRFAYWGQGTLVTVSAASTKGPSVFPLAPSSKSTSGGTAALGCLVKDYFPEPVTVSWNSGALTSGVHTFPAVLQSSGLYSLSSVVTVPSSSLGTQTYICNVNHKPSNTKVDKRVEPKSCDKTHTCPPCPAPEAEGAPSVFLFPPKPKDTLMISRTPEVTCVVVDVSHEDPEVKFNWYVDGVEVHNAKTKPREEQYNSTYRVVSVLTVLHQDWLNGKEYKCKVSNKALPSSIEKTISKAKGQPREPQVYTLPPSREEMTKNQVSLTCLVKGFYPSDIAVEWESNGQPENNYKTTPPVLDSDGSFFLYSKLTVDKSRWQQGNVFSCSVMHEALHNHYTQKSLSLSPGK
light: DIVLTQSPASLAVSLGQRATISCRASESVDNFGVSFMYWFQQKPGQPPNLLIYGASNQGSGVPARFRGSGSGTDFSLNIHPMEADDTAMYFCQQTKEVPYTFGGGTKLEIKRTVAAPSVFIFPPSDEQLKSGTASVVCLLNNFYPREAKVQWKVDNALQSGNSQESVTEQDSKDSTYSLSSTLTLSKADYEKHKVYACEVTHQGLSSPVTKSFNRGEC
modifications: Chimeric homo sapiens mus musculus
- maximum inhibition achieved, soluble CD39 ([1]; 400 ng/ml soluble CD39, 20 μM ATP): 74.9%
- inhibition of ATPase activity of soluble CD39 when spiked into negative hybridoma supernatants ([1]; antibody added to hybridoma supernatants negative for sCD39 inhibition): did not restore the ability of negative supernatants to inhibit ATPase activity of CD39
- inhibition of ATPase activity after purification from negative supernatant ([1]; antibody purified from the negative supernatant with Protein A coated beads): again able to inhibit
- inhibition of the enzymatic (ATPase) activity of soluble CD39 protein ([1]; result in words): strong inhibition; also recorded: inhibit soluble CD39; also recorded: inhibits the enzymatic activity; also recorded: highly potent at blocking the enzymatic activity
- binding to cells expressing human CD39 (CHO-huCD39) [2]: bound; also recorded: binds
- binding to CD39-L4 in ELISA [3]: not to any of the human isoforms
- potency and maximal inhibition of cellular CD39, comparison between antibodies (FIG. 2A) ([4]; compared with BY40): greater potency and maximal inhibition of cellular CD39 compared to BY40; also recorded: greater potency at all concentrations as well as greater maximal inhibition of cellular CD39 compared to BY40
- inhibition of cell-membrane bound (cellular) CD39 ATPase activity ([4]; result in words): inhibit cell-membrane bound CD39
